What was measured:
[1] = biological target: T1, human CD123 (IL3RA) Strep-II tagged Fc-fusion protein (human); experiment: SPR Proteon XPR36, rat IgG captured, CD123-Fc analyte
T1 construct: also called human CD123-Fc
Method: Screening of anti-CD123 rat IgGs for binding affinities to human CD123 and cross-reactivities to cyno CD123 was performed with hybridoma supernatants using a Proteon XPR36 (Biorad) in a one-shot kinetics approach. A capture assay was established using a goat anti-rat IgG (112-005-071, Jackson Immuno Research). The capture antibody was coated on GLC chips (176-5011, Biorad) to approx. 8000 RU in the vertical direction using the amine coupling kit (176-2410, Biorad). […] Binding kinetics with human and cyno CD123-Fc fusion protein was measured at 100 μl/min in the horizontal direction with 120 sec. and 600 sec. for association and dissociation, respectively. The CD123-Fc proteins were used in twofold dilutions from 6 nM to 100 nM. PBSET buffer (176-2730, Biorad) was used as assay buffer. Regeneration was achieved by injection of 10 mM Glycine buffer pH 1.5 for 18 sec at 30 μl/min. Data processing and analysis was performed using ProteonManager software v3.0. Fitting of the sensorgrams was done with a 1:1 Langmuir model.

[2] = biological target: T2, human CD3ε/δ-Fc fusion heterodimer (hCD3ε/δ-hFc) (human, UniProt P04234 22-105); experiment: SPR single point, hybridoma supernatant
T2 construct: also called CD3ed-Fc; human CD3ε/δ complex; not shown: hinge-CH2-CH3 of human IgG with tag
T2 sequence (chain, as listed by the source mutant, chain 1 of 2): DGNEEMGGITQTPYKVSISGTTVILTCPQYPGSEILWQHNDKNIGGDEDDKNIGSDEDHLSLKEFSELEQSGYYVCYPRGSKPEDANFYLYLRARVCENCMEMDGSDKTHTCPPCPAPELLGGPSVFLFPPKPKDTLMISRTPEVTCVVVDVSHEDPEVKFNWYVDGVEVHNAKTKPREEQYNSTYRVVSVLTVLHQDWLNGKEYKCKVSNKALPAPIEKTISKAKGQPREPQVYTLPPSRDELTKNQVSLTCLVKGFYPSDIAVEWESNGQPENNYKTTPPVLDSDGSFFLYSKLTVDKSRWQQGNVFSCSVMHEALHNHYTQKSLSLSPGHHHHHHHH
T2 sequence (P04234 22-105, stated change not applied, chain 2 of 2): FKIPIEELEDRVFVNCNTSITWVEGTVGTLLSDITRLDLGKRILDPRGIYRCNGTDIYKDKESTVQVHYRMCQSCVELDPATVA
Method: Rats with positive sera were scarified and B cells were fused with mouse myeloma cells. The resulting hybridomas were screened on HEK293 cells transfected with human or cynomolgus CD3ε and CD3δ expression plasmids, on Jurkat E6.1 (CD3+) and Jurkat T3.5 (CD3-) by flow cytometry. Supernatant of Hybridoma clones was used to assess by surface plasmon resonance single point kinetic against human and Macaca fascicularis CD3ε/δ complex by fixing the analyte at 25 nM (data presented in table 3).

T1 sequence (chain, as listed by the source limits assumed): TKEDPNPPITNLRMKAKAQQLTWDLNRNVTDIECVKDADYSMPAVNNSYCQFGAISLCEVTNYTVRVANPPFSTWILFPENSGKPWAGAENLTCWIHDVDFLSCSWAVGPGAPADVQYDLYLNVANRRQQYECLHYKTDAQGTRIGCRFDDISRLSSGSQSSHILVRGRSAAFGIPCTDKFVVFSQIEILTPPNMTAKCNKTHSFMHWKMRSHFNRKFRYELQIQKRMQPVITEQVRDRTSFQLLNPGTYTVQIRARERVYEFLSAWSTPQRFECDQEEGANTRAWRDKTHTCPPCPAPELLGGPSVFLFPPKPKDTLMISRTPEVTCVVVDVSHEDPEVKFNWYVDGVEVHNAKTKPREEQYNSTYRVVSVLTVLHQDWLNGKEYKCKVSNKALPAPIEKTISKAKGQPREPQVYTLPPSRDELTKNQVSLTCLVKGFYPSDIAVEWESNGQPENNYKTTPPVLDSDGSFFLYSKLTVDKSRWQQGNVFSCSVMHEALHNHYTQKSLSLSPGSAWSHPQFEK

koff [1] | RU at 25 nM [2] | Binder
~5e-05 s⁻¹ | – | 3B10-E6 anti-CD123 antibody (antibody, V domains shown, rat IgG, hybridoma supernatant; also called BFX - 3B10) VH: QVQLQQSGPELRRPGSSVRLSCKASGYRIKDFLIHWIKNRPEHGLEWIGWIDPEDGETKYAQKFQTKATLTADTSSNTAYMQLSSLTSEDTATYFCARWGDVYYGLMRGHVMDAWGQGTSVTVSS VL: DVLMTQTPVSLPVSLGGQVSISCRSSQSLVHSDGDTYLHWYLQKPGQSPQLLIYRVSNRFSGVPDRFSGSGSGTDFTLKISRVEPEDLGLYYCLQTTHFPPWTFGGGTKLEMK
– | 7 RU | 11H3-E5 anti-CD3 antibody (antibody, V domains shown, rat mAb, hybridoma supernatant) VH: EVQLVETGGSLVQPGKSLKLTCATSGFTFSNAWMHWVRQSPEKQLEWVAQIKAKSNNYATYYAESVKGRFTISRDDSKSSVYLQMNSLKEEDTAIYYCRGTYYAYKPFDYWGQGVMVTVSS VL: DVVMTQTPVSLSVSLGGQVSISCRSSQSLVHDNGNTYLSWSLQKPGQSPQVLIYKVSNRFSGTSDRFTGSGSGTDFTLKISRVEPDDLGVYYCGQGTQYPFTFGSGTKLEIK

From patent publication US20180222987A1 (Sanofi, published 2018)
